Residue numbers refer to the chain shown, from its start. In names and notes the source's numbering stands.
B1: N-PH-FFAT (domain or fragment, UniProt P22059 1-408, looked up)
chain: MAATELRGVVGPGPAAIAALGGGGAGPPVVGGGGGRGDAGPGSGAASGTVVAAAAGGPGPGAGGVAAAGPAPAPPTGGSGGSGAGGSGSAREGWLFKWTNYIKGYQRRWFVLSNGLLSYYRSKAEMRHTCRGTINLATANITVEDSCNFIISNGGAQTYHLKASSEVERQRWVTALELAKAKAVKMLAESDESGDEESVSQTDKTELQNTLRTLSSKVEDLSTCNDLIAKHGTALQRSLSELESLKLPAESNEKIKQVNERATLFRITSNAMINACRDFLMLAQTHSKKWQKSLQYERDQRIRLEETLEQLAKQHNHLERAFRGATVLPANTPGNVGSGKDQCCSGKGDMSDEDDENEFFDAPEIITMPENLGHKRTGSNISGASSDISLDEQYKHQLEETKKEKRTR
notes: OSBP residues 1-408 (N-terminal region, PH domain, central core, FFAT motif), lacking the ORD; also called 1-408-OSBP; NH-FFAT
B2: VAP-A (natural protein, human, UniProt Q9P0L0 8-249, looked up)
chain: MAKHEQILVLDPPTDLKFKGPFTDVVTTNLKLRNPSDRKVCFKVKTTAPRRYCVRPNSGIIDPGSTVTVSVMLQPFDYDPNEKSKHKFMVQTIFAPPNTSDMEAVWKEAKPDELMDSKLRCVFEMPNENDKLNDMEPSKAVPLNASKQDGPMPKPHSVSLNDTETRKLMEECKRLQGEMMKLSEENRHLRDEGLRLRKVAHSDKPGSTSTASFRDNVTSPLPSLLVVIAAIFIGFFLGKFIL
notes: VAP-A, human, Q9P0L0, fragment 8-249 with its C-terminal transmembrane helix; The methods give the fragment 8-249 and the results say full-length; Both tags were removed with TEV protease before size exclusion chromatography; also called full-length VAP-A; human VAP-A; source: E. coli C41 (DE3), membranes solubilised in DDM, purified (Strep-Tactin, TEV, Superdex 200); reconstituted in egg …
B3: OSBP CC[G324C] (C224A/C276A/G324C) (domain or fragment, UniProt P22059 199-324, looked up)
chain: VSQTDKTELQNTLRTLSSKVEDLSTANDLIAKHGTALQRSLSELESLKLPAESNEKIKQVNERATLFRITSNAMINAARDFLMLAQTHSKKWQKSLQYERDQRIRLEETLEQLAKQHNHLERAFRC
modifications: AF-488, AF-568 or both dyes on the introduced cysteine C324 in the FRET experiments; unlabelled in gel filtration
notes: Cloned via BamH1/Xma1 into pGEX-4T2; source: E. coli Bl21gold, purified (Glutathione-Sepharose, thrombin, MonoS, Superose 12)
B4: OSBP Central Core (CC), wild type (domain or fragment, UniProt P22059 199-324, looked up)
chain: B3 chain with A26C, A78C, C126G
notes: The methods describe cloning (pGEX-4T2, GST tag, thrombin cleavage) and purification only for the cysteine mutants; also called OSBP CC; source: E. coli, purified

Columns and labels:
OSBP FFAT (Homo sapiens) = OSBP FFAT (Homo sapiens) (UniProt P22059); settings: cited from earlier work
[1] = biological target: the molecule itself; assay: cryo-EM structure; cryo-ET with sub-tomogram averaging of contact sites between VAP-A vesicles (LPR 70 mol/mol) and N-PH-FFAT on PI4P tubes; class with 20-25 nm membrane separation; VAP-A and N-PH-FFAT averaged separately
[2] = biological target: the molecule itself; assay: SDS-PAGE without heating; purified VAP-A in DDM, with reducing agents; bands at ~55 kDa and ~25 kDa, a single band when the samples were heated
N-PH-FFAT = biological target: B1; assay: membrane tethering seen by cryo-EM and cryo-ET; N-PH-FFAT or OSBP bound to GalCer/PI4P tubes (70 lipids/protein mol/mol), VAP-A proteoliposomes added (2 min incubation, or sequentially on the grid for 30 s), HK buffer, room temperature; settings: both partners purified
[3] = biological target: the molecule itself; assay: SEC; analytical gel filtration, Superdex 75, 100 ul of 10 uM protein, 25 mM Tris pH 7.5, 120 mM NaCl, 1 mM DTT; Stokes radius against MW of standards

Q: With VAP-A MSP (from UniProt Q9P0L0) as the molecule, how does the Kd (OSBP FFAT (Homo sapiens)) read?
A: Its Kd is 2000 nM.

Q: For B1, which “stoichiometry N” value [1] is on record?
A: The value was 2.

Q: With B2 as the molecule, how does the “stoichiometry N” value [2] read?
A: The value was 2.

Q: Does B2 bind (N-PH-FFAT)?
A: Result: binds

Q: Does B3 bind [3]?
A: Result: binds

Q: Which “stoichiometry N” value [3] does the source give for B4 here?
A: The value was 2.

From PMC8187361, “Nanoscale architecture of a VAP-A-OSBP tethering complex at membrane contact sites” (Nature Communications, 2021)
